Target: GST-CypA (cyclophilin A) (human) (UniProt P62937)
Assay: radioligand binding

Chain of GST-CypA (cyclophilin A) (human) (P62937 whole entry): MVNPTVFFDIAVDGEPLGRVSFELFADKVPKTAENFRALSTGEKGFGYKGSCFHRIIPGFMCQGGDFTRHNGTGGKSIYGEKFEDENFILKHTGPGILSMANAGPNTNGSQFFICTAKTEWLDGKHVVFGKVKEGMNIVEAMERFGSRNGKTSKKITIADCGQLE

## NS5A Con1 D320E-His (full length) (natural protein)
  Kd: 124 µM

## full-length NS5A MD2b-1-His (genotype 2b) (natural protein)
  Kd: 112 µM
